Test results published in US20200157180A1 (JIANGSU HENGRUI MEDICINE, published 2020).

Legend:
[1] = biological target: T1, human TGF-β1 (human, UniProt P01137 279-390); experiment: cell-based or functional assay
[2] = biological target: human PD-L1 on CHO/PD-L1 cells (human, UniProt Q9NZQ7 19-290); experiment: cell-based or functional assay
[3] = biological target: T1, human TGF-β1; experiment: ELISA, coated human TGF-β1 1 µg/ml, anti-human Fc-HRP, OD450
Method: a. 96-well plates were coated with 100 μl/well of human TGF-β1 (8915LC, CST) at a concentration of 1 μg/ml at 4° C. overnight.
d. The wells were washed 3 times with 250 μl 1×PBST, e. 100 μl of Anti-human Fc antibody-HRP (1:4000) was added to each well and incubated for 40 minutes at 37° C.

T1 sequence (P01137 279-390 limits assumed): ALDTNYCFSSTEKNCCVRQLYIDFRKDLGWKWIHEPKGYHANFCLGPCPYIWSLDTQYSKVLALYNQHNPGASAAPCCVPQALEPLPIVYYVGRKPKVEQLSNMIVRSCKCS
Sequence of human PD-L1 on CHO/PD-L1 cells (Q9NZQ7 19-290): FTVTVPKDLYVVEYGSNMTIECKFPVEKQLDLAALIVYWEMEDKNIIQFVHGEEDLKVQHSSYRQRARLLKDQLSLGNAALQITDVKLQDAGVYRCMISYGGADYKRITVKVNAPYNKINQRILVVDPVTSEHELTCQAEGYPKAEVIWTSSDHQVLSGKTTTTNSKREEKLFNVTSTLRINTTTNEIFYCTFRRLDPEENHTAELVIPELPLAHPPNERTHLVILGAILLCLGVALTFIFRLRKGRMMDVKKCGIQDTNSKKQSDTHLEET

B1: PD-L1 antibody (antibody, human IgG4 S228P, kappa, F234A L235A, V domains shown)
VH: QVQLVQSGAEVKKPGASVKVSCKASGYTFTSYWMHWVRQAPGQGLEWMGRIGPNSGFTSYNEKFKNRVTMTRDTSTSTVYMELSSLRSEDTAVYYCARGGSSYDYFDYWGQGTTVTVSS
VL: DIVLTQSPASLAVSPGQRATITCRASESVSIHGTHLMHWYQQKPGQPPKLLIYAASNLESGVPARFSGSGSGTDFTLTINPVEAEDTANYYCQQSFEDPLTFGQGTKLEIKR
notes: Humanized IgG4 with S228P, F234A, L235A; last heavy chain residue K mutated to A; also called anti-PD-L1 antibody; PD-L1 antibody heavy chain: IgG4(AA)(S228P)
- IC50, TGFβ-induced pSMAD3 reporter (luciferase) activity in HepG2 cells [1]: > 500 nM
- EC50 (read off the curve) [2]: ~0.3 nM
- binding result [3]: no binding (tested: Log(pM) 6 (10^6 pM))
